The data set can be described thus: self-splicing fitness, log relative to wild type (ln ratio); higher = more splicing; Tetrahymena group I intron in knt gene, E. coli kanamycin selection, DiMSum; sequences stand for … in CUCUCU…GGAGGGAAAAGUUAUCAGGCAUGCACCUGGUAGCUAGUCUUUAAACCAAUAGAUUGCAUCGGUUUAAAAGGCAAGACCGUCAAAUUGCGGGAAAGGGGUCAACAGCCGUUCAGUACCAAGUCUCAGGGGAAACUUUGAGAUGGCCUUGCAAAGGGUAUGGUAAUAAGCUGACGGACAUGGUCCUAACCACGCAGCCAAGUCCUAAGUCAACAGAUCUUCUGUUGAUAUGGAUGCAGUUCACAGACUAAAUGUCGGUCGGGGAAGAUGUAUUCUUCUCAUAAGAUAUAGUCGGACCUCUCCUUAAUGGGAGCUAGCGGAUGAAGUGAUGCAACACUGGAGCCGCUGGGAACUAAUUUGUAUGCGAAAGUAUAUUGAUUAGUUUUGGAGUACUCGUGGUCG
The procedure, abridged:
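Library with all eight P1ex-region intron nucleotides randomised, intron inside the knt kanamycin-resistance gene on pET-22b(+), in E. coli BL21(DE3). Cells grew overnight at 37°C or 30°C on LB agar with or without 25 μg/mL kanamycin (plus 100 μg/mL carbenicillin, 50 μM IPTG, 0.2% rhamnose), in six replicate transformations. Pooled colonies were amplicon-sequenced on Illumina HiSeq 2500. DiMSum fitness is the error-weighted combination of wild-type-normalised replicate fold changes, kanamycin versus none.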

The text below walks through data of the supplement of paper PMC7877785.

± gives the uncertainty stated by the source.

As for AACGAGCAAUAUUACGCGGA, the “self-splicing fitness (ln)” value by setting is: (30 °C) -2.97 ± 0.2; (37 °C) -2.01 ± 0.2.
With GCAGAGCAAUAUUACGCUUU, under “37 °C”, the “self-splicing fitness (ln)” value was -3.01 ± 0.27.
As to CGCAAGCAAUAUUACGAAAG, the “self-splicing fitness (ln)” value (30 °C) is -0.888 ± 0.071 and the “self-splicing fitness (ln)” value (37 °C) is -1.12 ± 0.093.
For the sequence AGUCAGCAAUAUUACGGCUG, the “self-splicing fitness (ln)” value (30 °C) was -0.616 ± 0.12 and the “self-splicing fitness (ln)” value (37 °C) was -1.96 ± 0.22.
The matching figures for AACGAGCAAUAUUACGUCUC: -3.67 ± 0.29 and -3.03 ± 0.27.
The matching figures for CUUCAGCAAUAUUACGAACG: -0.295 ± 0.062 and 0.406 ± 0.093.
AUUCAGCAAUAUUACGUUAA: the “self-splicing fitness (ln)” value was -1.62 ± 0.12 (30 °C) and -0.923 ± 0.1 (37 °C).
Regarding GUAGAGCAAUAUUACGCCUA, the “self-splicing fitness (ln)” value is, setting by setting: (30 °C) -1.39 ± 0.26; (37 °C) -1.18 ± 0.24.
In the case of UAUUAGCAAUAUUACGAUAA, the “self-splicing fitness (ln)” value is, setting by setting: (30 °C) -1.07 ± 0.19; (37 °C) 0.628 ± 0.16.
As for GACUAGCAAUAUUACGGGAC, the “self-splicing fitness (ln)” value is, setting by setting: (30 °C) -2.29 ± 0.17; (37 °C) -1.44 ± 0.19.
With UGCGAGCAAUAUUACGGCCU, the “self-splicing fitness (ln)” value is, setting by setting: (30 °C) -1.85 ± 0.2; (37 °C) -1.45 ± 0.24.
The matching figures for GCACAGCAAUAUUACGCUGU: -3.33 ± 0.14 and -2.23 ± 0.17.
Consider GAUCAGCAAUAUUACGAGCA, for which the “self-splicing fitness (ln)” value was -1.26 ± 0.1 (30 °C) and -0.318 ± 0.1 (37 °C).
The matching figures for ACCGAGCAAUAUUACGCAGG: -4.2 ± 0.47 and -2.65 ± 0.41.
The matching figures for UUAGAGCAAUAUUACGAUCA: -1.52 ± 0.16 and -0.808 ± 0.17.
The matching figures for GCGCAGCAAUAUUACGCGAG: -1.66 ± 0.08 and -0.987 ± 0.089.
As to CCGAAGCAAUAUUACGGAAG, the “self-splicing fitness (ln)” value (30 °C) was -3.86 ± 0.24 and the “self-splicing fitness (ln)” value (37 °C) is -1.31 ± 0.15.
On to CUGAAGCAAUAUUACGACAC, for which the “self-splicing fitness (ln)” value (30 °C) is -2.05 ± 0.32.
Regarding AUCAAGCAAUAUUACGGGUA, the “self-splicing fitness (ln)” value (30 °C) was -2.04 ± 0.11 and the “self-splicing fitness (ln)” value (37 °C) is -1.16 ± 0.091.
With CCAUAGCAAUAUUACGUGAG, the “self-splicing fitness (ln)” value by setting is: (30 °C) -0.355 ± 0.045; (37 °C) 0.00486 ± 0.066.
In the case of AUGGAGCAAUAUUACGUCGG, the “self-splicing fitness (ln)” value runs as follows: (30 °C) -2.7 ± 0.26; (37 °C) -1.13 ± 0.24.
The matching figures for GAUCAGCAAUAUUACGGCGC: -0.52 ± 0.11 and 0.0329 ± 0.14.
The matching figures for AGAAAGCAAUAUUACGAAAG: -3.93 ± 0.21 and -1.94 ± 0.18.
As to AUUUAGCAAUAUUACGAACA, the “self-splicing fitness (ln)” value by setting is: (30 °C) -0.709 ± 0.15; (37 °C) -0.537 ± 0.17.
The matching figures for CACGAGCAAUAUUACGUUCU: -3.56 ± 0.2 and -2.02 ± 0.26.
UUCUAGCAAUAUUACGCGCA: the “self-splicing fitness (ln)” value is, setting by setting: (30 °C) -0.451 ± 0.088; (37 °C) -0.191 ± 0.097.
In the case of CGUUAGCAAUAUUACGGCCG, the “self-splicing fitness (ln)” value is, setting by setting: (30 °C) -1.84 ± 0.41; (37 °C) -0.176 ± 0.35.
For the sequence AGACAGCAAUAUUACGGCCC, the “self-splicing fitness (ln)” value is, setting by setting: (30 °C) -0.119 ± 0.2; (37 °C) -0.253 ± 0.25.
The matching figures for AAUUAGCAAUAUUACGGACU: -0.43 ± 0.087 and 0.51 ± 0.14.
The matching figures for AGGAAGCAAUAUUACGCUAC: -3.48 ± 0.41 and -2.99 ± 0.47.
The matching figures for AUGUAGCAAUAUUACGCUUA: -0.903 ± 0.14 and -0.145 ± 0.16.
Take GUUGAGCAAUAUUACGAGUU: under “37 °C”, the “self-splicing fitness (ln)” value was -2.56 ± 0.33.
AAGAAGCAAUAUUACGACAG: the “self-splicing fitness (ln)” value by setting is: (30 °C) -2.2 ± 0.11; (37 °C) -0.487 ± 0.1.
On to AUCUAGCAAUAUUACGGAGG, for which the “self-splicing fitness (ln)” value by setting is: (30 °C) -1.93 ± 0.14; (37 °C) -1.96 ± 0.23.
Regarding UGAUAGCAAUAUUACGCCGA, the “self-splicing fitness (ln)” value is, setting by setting: (30 °C) -2.91 ± 0.32; (37 °C) -1.28 ± 0.18.
As to CUUUAGCAAUAUUACGGGAA, the “self-splicing fitness (ln)” value (30 °C) is -2.28 ± 0.22 and the “self-splicing fitness (ln)” value (37 °C) is -1.58 ± 0.3.
The matching figures for CAAGAGCAAUAUUACGGAUA: -2.87 ± 0.23 and -2.32 ± 0.29.
In the case of GACGAGCAAUAUUACGGUGC, the “self-splicing fitness (ln)” value (30 °C) is -2.72 ± 0.28 and the “self-splicing fitness (ln)” value (37 °C) was -1.47 ± 0.25.
The matching figures for CAAUAGCAAUAUUACGCAUG: -1.35 ± 0.091 and -0.845 ± 0.11.
The matching figures for AUAAAGCAAUAUUACGUGAU: -1.64 ± 0.074 and -0.793 ± 0.11.
GCUGAGCAAUAUUACGGAUA: the “self-splicing fitness (ln)” value (30 °C) was -2.7 ± 0.16 and the “self-splicing fitness (ln)” value (37 °C) was -1.8 ± 0.14.
Turning to CCCCAGCAAUAUUACGGCCC, for the setting “37 °C”, the “self-splicing fitness (ln)” value was -1.64 ± 0.47.
Consider CUAUAGCAAUAUUACGAGGC, for which the “self-splicing fitness (ln)” value (30 °C) was -3.06 ± 0.35.
Consider GCAGAGCAAUAUUACGGUUU, for which the “self-splicing fitness (ln)” value (30 °C) is -2.82 ± 0.17 and the “self-splicing fitness (ln)” value (37 °C) is -2.08 ± 0.15.
AGGGAGCAAUAUUACGUGCA: the “self-splicing fitness (ln)” value reads like this: (30 °C) -4.52 ± 0.34; (37 °C) -2.5 ± 0.24.
CCUUAGCAAUAUUACGCUCG: under “37 °C”, the “self-splicing fitness (ln)” value is -1.73 ± 0.27.
Take UGGUAGCAAUAUUACGCCGA: the “self-splicing fitness (ln)” value is -1.43 ± 0.45 (30 °C) and -0.492 ± 0.32 (37 °C).
As for CACUAGCAAUAUUACGCUGG, the “self-splicing fitness (ln)” value (30 °C) is -4.08 ± 0.37 and the “self-splicing fitness (ln)” value (37 °C) was -1.87 ± 0.22.
For GACGAGCAAUAUUACGACCC, the “self-splicing fitness (ln)” value by setting is: (30 °C) -0.0053 ± 0.24; (37 °C) -0.307 ± 0.22.
The matching figures for AGUAAGCAAUAUUACGUUAU: -3.25 ± 0.23 and -2.18 ± 0.18.
The matching figures for CCUCAGCAAUAUUACGCGUU: -3.88 ± 0.23 and -2.96 ± 0.4.
Take GCGUAGCAAUAUUACGUGAA: the “self-splicing fitness (ln)” value is, setting by setting: (30 °C) -2.92 ± 0.15; (37 °C) -1.49 ± 0.13.
The matching figures for UGAUAGCAAUAUUACGUAUG: -1.1 ± 0.16 and -0.567 ± 0.16.
As to GAUAAGCAAUAUUACGGAAG, the “self-splicing fitness (ln)” value (30 °C) was -3.56 ± 0.35 and the “self-splicing fitness (ln)” value (37 °C) is -1.95 ± 0.23.
CGUCAGCAAUAUUACGCGUU: the “self-splicing fitness (ln)” value runs as follows: (30 °C) -2.71 ± 0.14; (37 °C) -2.01 ± 0.18.
Consider GUUCAGCAAUAUUACGAUGC, for which the “self-splicing fitness (ln)” value (30 °C) is -0.236 ± 0.17 and the “self-splicing fitness (ln)” value (37 °C) is 0.2 ± 0.14.
As to GUCUAGCAAUAUUACGCAUG, the “self-splicing fitness (ln)” value (30 °C) is -0.786 ± 0.1 and the “self-splicing fitness (ln)” value (37 °C) was -0.64 ± 0.16.
For CCGGAGCAAUAUUACGUAGG, the “self-splicing fitness (ln)” value runs as follows: (30 °C) -3.55 ± 0.26; (37 °C) -2.66 ± 0.3.
For the sequence GUAUAGCAAUAUUACGGUGG, the “self-splicing fitness (ln)” value by setting is: (30 °C) -2.54 ± 0.1; (37 °C) -2.63 ± 0.17.
The matching figures for UGGUAGCAAUAUUACGAAGA: -1.45 ± 0.4 and -2.3 ± 0.49.
The matching figures for UGCGAGCAAUAUUACGUAAC: -3.17 ± 0.18 and -3.09 ± 0.27.
The matching figures for CGAAAGCAAUAUUACGCAAG: -1.44 ± 0.097 and -0.503 ± 0.12.
Take CUCAAGCAAUAUUACGCUGA: the “self-splicing fitness (ln)” value is -3.13 ± 0.18 (30 °C) and -2.41 ± 0.2 (37 °C).
Take GGGCAGCAAUAUUACGGUGA: the “self-splicing fitness (ln)” value (30 °C) was -0.844 ± 0.074 and the “self-splicing fitness (ln)” value (37 °C) is -0.671 ± 0.088.
The matching figures for ACACAGCAAUAUUACGCAGU: -3.84 ± 0.14 and -2.73 ± 0.12.
With GGUGAGCAAUAUUACGAGGC, the “self-splicing fitness (ln)” value (37 °C) was -0.336 ± 0.33.
As for CCCAAGCAAUAUUACGUCUU, the “self-splicing fitness (ln)” value by setting is: (30 °C) -3.41 ± 0.11; (37 °C) -2.25 ± 0.12.
The matching figures for GCAAAGCAAUAUUACGGGUC: -2.55 ± 0.14 and -1.05 ± 0.12.
As for GAAAAGCAAUAUUACGAACC, the “self-splicing fitness (ln)” value is, setting by setting: (30 °C) -0.664 ± 0.14; (37 °C) -0.705 ± 0.18.
The matching figures for CGGUAGCAAUAUUACGUCCC: -0.348 ± 0.48 and 0.985 ± 0.48.
The matching figures for UUUAAGCAAUAUUACGAAGA: -2.77 ± 0.27 and -1.33 ± 0.21.
The matching figures for AUCAAGCAAUAUUACGCAUC: -3.97 ± 0.24 and -1.64 ± 0.14.
As for CCAUAGCAAUAUUACGCUCG, the “self-splicing fitness (ln)” value is -1.69 ± 0.1 (30 °C) and -0.407 ± 0.13 (37 °C).
For CAGAAGCAAUAUUACGAGCC, the “self-splicing fitness (ln)” value (30 °C) was -3.03 ± 0.47 and the “self-splicing fitness (ln)” value (37 °C) was -1.82 ± 0.27.
In the case of UGUUAGCAAUAUUACGCCCU, the “self-splicing fitness (ln)” value (30 °C) was -0.0997 ± 0.17 and the “self-splicing fitness (ln)” value (37 °C) was found to be 0.532 ± 0.18.
The matching figures for GCGAAGCAAUAUUACGUCCA: -1.16 ± 0.086 and -0.269 ± 0.11.
The matching figures for GUGAAGCAAUAUUACGCACG: -0.996 ± 0.12 and -0.777 ± 0.13.
